The source of these data is article PMC4031514, “Lysine 27 Ubiquitination of the Mitochondrial Transport Protein Miro Is Dependent on Serine 65 of the Parkin Ubiquitin Ligase*” (The Journal of Biological Chemistry, 2014).

In the assay the target is T1, GFP-TRAK1 (mouse, UniProt Q6PD31 1-939).
T1 construct: TRAK1, mouse; also called kinesin adaptor TRAK1
T1 sequence (looked up): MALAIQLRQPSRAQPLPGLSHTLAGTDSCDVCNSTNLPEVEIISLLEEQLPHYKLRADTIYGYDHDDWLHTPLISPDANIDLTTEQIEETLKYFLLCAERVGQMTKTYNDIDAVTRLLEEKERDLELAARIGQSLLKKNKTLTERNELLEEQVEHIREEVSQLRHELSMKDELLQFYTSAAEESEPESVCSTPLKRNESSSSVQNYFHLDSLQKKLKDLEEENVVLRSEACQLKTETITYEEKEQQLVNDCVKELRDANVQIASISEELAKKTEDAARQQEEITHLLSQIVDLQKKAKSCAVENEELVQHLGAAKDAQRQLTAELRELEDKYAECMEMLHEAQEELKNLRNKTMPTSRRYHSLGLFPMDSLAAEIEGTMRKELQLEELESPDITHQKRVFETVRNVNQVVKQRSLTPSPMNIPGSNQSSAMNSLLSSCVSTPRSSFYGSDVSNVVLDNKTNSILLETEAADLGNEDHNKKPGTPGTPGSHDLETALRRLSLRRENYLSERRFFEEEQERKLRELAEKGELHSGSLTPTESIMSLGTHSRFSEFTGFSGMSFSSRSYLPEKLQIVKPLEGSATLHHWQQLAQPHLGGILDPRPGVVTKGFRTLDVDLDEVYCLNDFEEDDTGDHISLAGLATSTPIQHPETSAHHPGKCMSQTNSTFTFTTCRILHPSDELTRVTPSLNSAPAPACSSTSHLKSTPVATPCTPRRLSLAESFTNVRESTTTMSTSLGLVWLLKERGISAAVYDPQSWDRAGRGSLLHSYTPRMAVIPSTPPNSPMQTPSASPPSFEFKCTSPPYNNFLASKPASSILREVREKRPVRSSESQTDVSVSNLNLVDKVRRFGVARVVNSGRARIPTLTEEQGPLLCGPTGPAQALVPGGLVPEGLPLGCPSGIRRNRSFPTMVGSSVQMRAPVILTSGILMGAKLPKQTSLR
Nature of the assay: co-IP; coimmunopurification of mycMiro1 and GFP-TRAK1 from transfected cells, untreated or treated with 10 uM FCCP, 1 h; GFP-TRAP beads per the methods; lysis in 50 mM Tris pH 7.4, 150 mM NaCl, 1 mM EDTA, 0.5% Triton X-100; western blot, densitometry. As to conditions: partners not purified.

B1: Myc-tagged Miro1 (natural protein, UniProt Q8IXI2 1-618, looked up)
chain: MKKDVRILLVGEPRVGKTSLIMSLVSEEFPEEVPPRAEEITIPADVTPERVPTHIVDYSEAEQSDEQLHQEISQANVICIVYAVNNKHSIDKVTSRWIPLINERTDKDSRLPLILVGNKSDLVEYSSMETILPIMNQYTEIETCVECSAKNLKNISELFYYAQKAVLHPTGPLYCPEEKEMKPACIKALTRIFKISDQDNDGTLNDAELNFFQRICFNTPLAPQALEDVKNVVRKHISDGVADSGLTLKGFLFLHTLFIQRGRHETTWTVLRRFGYDDDLDLTPEYLFPLLKIPPDCTTELNHHAYLFLQSTFDKHDLDRDCALSPDELKDLFKVFPYIPWGPDVNNTVCTNERGWITYQGFLSQWTLTTYLDVQRCLEYLGYLGYSILTEQESQASAVTVTRDKKIDLQKKQTQRNVFRCNVIGVKNCGKSGVLQALLGRNLMRQKKIREDHKSYYAINTVYVYGQEKYLLLHDISESEFLTEAEIICDVVCLVYDVSNPKSFEYCARIFKQHFMDSRIPCLIVAAKSDLHEVKQEYSISPTDFCRKHKMPPPQAFTCNTADAPSKDIFVKLTTMAMYPHVTQADLKSSTFWLRASFGATVFAVLGFAMYKALLKQR
notes: Miro1, outer mitochondrial membrane GTPase; also called mycMiro1
Consider B1, for which the “co-IP with FCCP relative to untreated control (1)” value is 0.94 fold of control.
